Assays:
Conditions in all cases: tags: MBP fusion (pMAL); label: 5'-biotin sense strand (SPR)
ZFPa = ZFPa (synthetic); test: SPR; HBS-EP, 1:1 with drifting baseline
ZFPn = ZFPn (synthetic); test: SPR; HBS-EP
ZFPq = ZFPq (synthetic); test: SPR; HBS-EP; EMSA na
ZFPr = ZFPr (synthetic); test: SPR; HBS-EP; EMSA na
ZFPt = ZFPt (synthetic); test: SPR; HBS-EP; EMSA na
ZFPu = ZFPu (synthetic); test: SPR; HBS-EP; EMSA na
ZFPb = ZFPb (synthetic); test: SPR; HBS-EP, 1:1 with drifting baseline
ZFPc = ZFPc (synthetic); test: SPR; HBS-EP, 1:1 with drifting baseline
Sequence of ZFPc (synthetic) (chain, as listed by the source): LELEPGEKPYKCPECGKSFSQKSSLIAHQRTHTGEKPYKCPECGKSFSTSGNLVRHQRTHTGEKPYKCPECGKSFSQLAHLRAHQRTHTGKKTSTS

ZFPd = ZFPd (synthetic); test: SPR; HBS-EP; text elsewhere calls ZFPe the picomolar binder
Sequence of ZFPd (synthetic) (chain, as listed by the source): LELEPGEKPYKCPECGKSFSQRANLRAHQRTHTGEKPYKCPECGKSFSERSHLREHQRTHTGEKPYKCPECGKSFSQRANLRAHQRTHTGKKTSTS

ZFPe = ZFPe (synthetic); test: as above
Sequence of ZFPe (synthetic) (chain, as listed by the source): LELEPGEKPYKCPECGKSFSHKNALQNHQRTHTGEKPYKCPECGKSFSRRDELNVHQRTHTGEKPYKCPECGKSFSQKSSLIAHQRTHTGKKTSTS

ZFPf = ZFPf (synthetic); test: SPR; HBS-EP, 1:1 Langmuir
Sequence of ZFPf (synthetic) (chain, as listed by the source): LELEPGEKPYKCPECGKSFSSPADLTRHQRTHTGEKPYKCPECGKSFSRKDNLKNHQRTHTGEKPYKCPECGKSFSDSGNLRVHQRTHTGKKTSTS

ZFPk = ZFPk (synthetic); test: SPR; HBS-EP
Sequence of ZFPk (synthetic) (chain, as listed by the source): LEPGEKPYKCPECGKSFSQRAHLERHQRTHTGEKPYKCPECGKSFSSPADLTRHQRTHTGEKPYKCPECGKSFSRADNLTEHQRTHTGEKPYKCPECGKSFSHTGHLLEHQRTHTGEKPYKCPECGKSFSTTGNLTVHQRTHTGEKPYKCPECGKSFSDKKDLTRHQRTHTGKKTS

Sequence of ZFPa (synthetic) (chain, as listed by the source): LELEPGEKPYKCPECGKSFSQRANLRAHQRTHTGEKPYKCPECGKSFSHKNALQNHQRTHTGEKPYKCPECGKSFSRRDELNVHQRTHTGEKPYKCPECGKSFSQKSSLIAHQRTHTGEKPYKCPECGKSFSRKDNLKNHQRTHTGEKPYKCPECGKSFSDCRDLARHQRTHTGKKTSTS
Sequence of ZFPr (synthetic) (chain, as listed by the source): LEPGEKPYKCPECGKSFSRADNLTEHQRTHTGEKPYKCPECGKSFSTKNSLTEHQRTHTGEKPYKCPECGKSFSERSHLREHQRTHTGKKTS
Sequence of ZFPt (synthetic) (chain, as listed by the source): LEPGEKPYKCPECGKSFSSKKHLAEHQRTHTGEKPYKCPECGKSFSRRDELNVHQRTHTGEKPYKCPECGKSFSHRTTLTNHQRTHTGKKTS
Sequence of ZFPu (synthetic) (chain, as listed by the source): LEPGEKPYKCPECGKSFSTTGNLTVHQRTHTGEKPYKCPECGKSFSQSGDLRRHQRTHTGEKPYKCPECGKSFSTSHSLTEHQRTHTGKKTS
Sequence of ZFPn (synthetic) (chain, as listed by the source): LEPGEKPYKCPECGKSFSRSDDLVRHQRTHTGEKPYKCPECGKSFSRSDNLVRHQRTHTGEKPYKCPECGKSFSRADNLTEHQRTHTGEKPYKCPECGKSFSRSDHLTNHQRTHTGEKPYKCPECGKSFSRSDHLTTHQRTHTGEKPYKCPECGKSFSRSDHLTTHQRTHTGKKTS
Sequence of ZFPq (synthetic) (chain, as listed by the source): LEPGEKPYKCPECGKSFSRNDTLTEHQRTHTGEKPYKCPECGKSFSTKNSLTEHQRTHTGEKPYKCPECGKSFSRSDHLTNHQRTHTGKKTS
Sequence of ZFPb (synthetic) (chain, as listed by the source): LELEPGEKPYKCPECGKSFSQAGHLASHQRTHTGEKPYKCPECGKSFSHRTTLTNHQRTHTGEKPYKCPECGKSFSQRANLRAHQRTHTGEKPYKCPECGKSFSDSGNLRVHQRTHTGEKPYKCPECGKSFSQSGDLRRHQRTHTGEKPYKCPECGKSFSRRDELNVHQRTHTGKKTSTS

B1: ZFPa target oligo (dsDNA)
DNA 1: AGTACTGCCAAGATAATGATTAAAAGTACT
DNA 2: AGTACTTTTAATCATTATCTTGGCAGTACT
Kd (ZFPa): 12.3 nM

B2: ZFPn target oligo (dsDNA)
DNA 1: AGTACTTGGTGGAGGCAGGAGGCGAGTACT
DNA 2: AGTACTCGCCTCCTGCCTCCACCAAGTACT
Kd (ZFPn): 69.4 nM

B3: ZFPq target oligo (dsDNA)
DNA 1: AGTACTAGGCCTCCGAGTACT
DNA 2: AGTACTCGGAGGCCTAGTACT
Kd (ZFPq): 1290 nM

B4: ZFPr target oligo (dsDNA)
DNA 1: AGTACTAGCCCTCAGAGTACT
DNA 2: AGTACTCTGAGGGCTAGTACT
Kd (ZFPr): 502 nM

B5: ZFPt target oligo (dsDNA)
DNA 1: AGTACTAGTATGCCCAGTACT
DNA 2: AGTACTGGGCATACTAGTACT
Kd (ZFPt): 1070 nM

B6: ZFPu target oligo (dsDNA)
DNA 1: AGTACTCCAGCAAATAGTACT
DNA 2: AGTACTATTTGCTGGAGTACT
Kd (ZFPu): 2470 nM

B7: ZFPb target oligo (dsDNA)
DNA 1: AGTACTATGGCAAACAAAAGTTGAAGTACT
DNA 2: AGTACTTCAACTTTTGTTTGCCATAGTACT
Kd (ZFPb): 40.2 nM

B8: ZFPc target oligo (dsDNA)
DNA 1: AGTACTAGAGATATAAGTACT
DNA 2: AGTACTTATATCTCTAGTACT
Kd (ZFPc): 99 nM

B9: ZFPd target oligo (dsDNA)
DNA 1: AGTACTAAAAGCAAAAGTACT
DNA 2: AGTACTTTTGCTTTTAGTACT
Kd (ZFPd): 0.471 nM

B10: ZFPe target oligo (dsDNA)
DNA 1: AGTACTATAATGATTAGTACT
DNA 2: AGTACTAATCATTATAGTACT
Kd (ZFPe): 67.1 nM

B11: ZFPf target oligo (dsDNA)
DNA 1: AGTACTAACAAGACAAGTACT
DNA 2: AGTACTTGTCTTGTTAGTACT
Kd (ZFPf): 185000 nM

B12: ZFPk target oligo (dsDNA)
DNA 1: AGTACTACCAATCGCCAGACAGGAAGTACT
DNA 2: AGTACTTCCTGTCTGGCGATTGGTAGTACT
Kd (ZFPk): 5.14 nM
